Reference: article PMC3869376

Experiments:
[1] = target: 14-3-3β (UniProt P31946); assay: GST-14-3-3β pull-down from cell lysate; conditions: reference: HA-PDE3B wild type; sites S318
[2] = target: 14-3-3β (UniProt P31946); assay: DIG-GST-14-3-3β overlay on blotted immunoprecipitated PDE3B; conditions: reference: HA-PDE3B wild type; sites S318

14-3-3β, sequence (P31946 whole entry, looked up): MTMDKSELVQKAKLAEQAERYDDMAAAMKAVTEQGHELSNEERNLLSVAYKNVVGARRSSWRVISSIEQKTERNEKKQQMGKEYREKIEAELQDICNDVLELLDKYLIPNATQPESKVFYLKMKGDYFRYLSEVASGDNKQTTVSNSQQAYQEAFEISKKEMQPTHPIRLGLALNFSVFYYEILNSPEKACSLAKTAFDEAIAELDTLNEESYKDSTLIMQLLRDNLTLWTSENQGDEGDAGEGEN

binding against the reference [1]: lost
binding against the reference [2]: lost
Substance: PDE3B (phosphodiesterase 3B) (from UniProt Q13370-2) HA-PDE3B S318A
